In doi:10.1101/2024.11.06.622200:

Target: purified recombinant myristoylated HIV-1 matrix protein (myrMA) (HIV-1 NL4-3)

“HIV-1 spacer peptide 2 (SP2), added in vitro” was tested, and the share of sub-images contributing to mature-like MA lattice classes on lipid monolayers, with SP2 (7% mature-like and 7% immature-like without SP2) was 47%.
